Tests used:
[1] = ELISA avidity estimate on MBG-KLH; assay type: binding; details: wells coated with 2 μg/ml MBG-KLH; IgG
Procedure: The avidity of anti-MBG antibodies for MBG was estimated in an ELISA. Wells of a microtiter plate were coated with 2 μg/ml of either MBG-bovine serum albumin (BSA) or MBG-keyhole limpet hemocyanin (KLH). The wells were then blocked with 1% BSA. A test IgG antibody at varying concentrations (typically from about 0.0001 nM to about 25 nM) was added to the wells. The test IgG bound to immobilized MBG was detected with an anti-human Fc, horseradish peroxidase (HRP)-conjugated secondary antibody (Jackson ImmunoResearch). After washing of the wells, an appropriate HRP reagent (e.g., TMB ultra, Thermo Fisher) was added to the wells. Optical density (OD) at 450 nm was measured by a microplate reader. The concentration of test antibody at the midpoint of the binding curve is an estimate of avidity for MBG.

[2] = Competitive ELISA, free CTS competitors overall (summary and footnote); assay type: binding; details: competitors RBG, CINO, OUB, DIG; Table 2
Procedure: (§1) The specificity (relative affinity) of anti-MBG antibodies for MBG relative to various cardiotonic steroids (CTSs) was determined in a competitive ELISA. Each anti-MBG antibody was tested for its binding to immobilized MBG in the presence of free MBG, resibufogenin (RBG), cinobufagin (CINO), ouabain (OUB) or digoxin (DIG) as a competitor. A constant amount of an anti-MBG antibody (typically 1-5 μg/mL) and varying concentrations of each CTS (from 10^−12M to 10^−5M) were pre-incubated before being added to the MBG-BSA-coated wells. After washing of the wells, an anti-human Fc, HRP-conjugated secondary antibody (at 1:5000 dilution) was added to the wells and incubated at 37° C. for 1 hr. After washing of the wells, an appropriate HRP reagent (e.g., TMB ultra, Thermo Fisher) was added to the wells. OD at 450 nm was measured by a microplate reader. MBG at 10 μM was assumed to be 100% competed, and MBG at 1 pM was assumed to be 0% competed. The data was plotted as a titration of antibody-antigen binding relative to free CTS concentration in the competition reaction to determine the free CTS concentration (μM) giving 50% maximal binding of antibody to immobilized MBG. The relative specificity of an antibody for a CTS was normalized to MBG=100%.

[3] = Competitive ELISA, relative CTS specificity, CINO as competitor; assay type: binding; details: competition with immobilized MBG-BSA; normalized to MBG = 100%
Procedure: as §1

[4] = tested on: pregnant Sprague-Dawley rats; assay: DOCA/saline rat model of pre-eclampsia; assay type: in vivo; details: tail cuff; baseline; antibodies 2.2 mg/kg/d i.p. days 16-18 in PDS (DOCA/saline) rats; MBG 7.65 μg/kg/d in normal pregnant rats (NPM); N = 10
Na^+K^+-ATPase (NKA) = assay: Na^+K^+-ATPase activity (Malachite Green Phosphate Assay); assay type: biochemical, rat; details: anti-MBG antibodies 1-100 μg/mL; FIG. 4
Procedure: Na^+K^+-ATPase (NKA) was purified from rat heart. The NKA was collected as the sarcolemmal/particulate (SLP) fraction and frozen.
Na^+K^+-ATPase activity was measured as follows: aliquots of SLP were mixed with Reaction Buffer (200 mM Tris-HCl, pH 7.5, 200 mM NaCL, 30 mM MgCl2, 60 mM KCl, 10 mM EGTA, 100 μg/mL PMSF, 2 μg/mL pepstatin A, and 2 μg/mL aprotinin). Reactions were performed with or without MBG and with or without anti-MBG antibodies (1-100 μg/mL). Ouabain was used as positive control for NKA inhibition. Tubes were prewarmed, and ATP was added. Reactions were stopped and were placed on ice.
Phosphate was assayed using the Malachite Green Phosphate Assay. Phosphate standard or sample was added to each well of a 96-well plate, followed by Reagent A. Reagent B was added, with mixing and incubation. OD was then read at 630 nm in a microplate spectrophotometer.

B1: H3L2: humanized anti-MBG antibody, VH H3 (SEQ ID NO: 11) with VL L2 (SEQ ID NO: 13) (antibody, V domains shown)
VH: EVQLQESGPGLVKPSETLSLTCTVSGDSITSGYWNWIRQPPGKGLEYMGYISYSGTTYYNPSLKSRITISRDTSKNQYSLKLSSVTAADTAVYYCARARYGYGFDYWGQGTLVTVSS
VL: DVVMTQSPLSLPVTLGQPASISCRSSQSIVHSNRNTYLEWYQQRPGQSPRLLIYKVSNRFSGVPDRFSGSGSGTDFTLKISRVEAEDVGVYYCFQGSHVPLTFGGGTKVEIK
modifications: Humanized VH sequence; Humanized VL sequence
With B1 the “Estimated avidity (KA) (antibody concentration at 50% maximal binding to antigen, or EC50), Antigen 2 (MBG-KLH)” value [1] was 1.5 nM, the “reaction with CTS competitor molecules” value [2] was “did not react with any of the CTS competitor molecules” and the “Rel. CTS Specificity as % of MBG Binding: CINO” value [3] was 0%. The “Blood Pressure-Initial” value [4] was 104 ± 5 mm Hg and the “inhibitory effect of MBG on NKA in presence of antibody” value (Na^+K^+-ATPase (NKA)) was “reduce the inhibitory effect of MBG on NKA”.

From patent US10654925B2, “Anti-marinobufagenin antibodies and uses thereof” (priority 2018, dated 2020)
